Reference: the RNAGym collection of RNA variant scans (doi:10.7554/elife.80360)

B1: Twister Ribozyme (parent)
chain: AACACUGCCAAUGCCGGUCCCAAGCCCGGAUAAAAGUGGAGGGGGCGG

Variants of: B1
Experiment: self-cleavage, relative activity (ratio to wild type); higher = more cleavage; co-transcriptional

Variant | self-cleavage
C25G G29U | 0.651
C25G G29C | 0.109
C25U G47U | 0.573
C25A G45U | 0.0929
C25A A33G | 0.079
C25A A33U | 0.0752
C26A G38U | 0.221
C26A G38A | 0.143
C26U G38A | 0.157
C26U G38C | 0.225
C27G G44C | 0.133
C27G G44U | 0.0884
C27U G39U | 0.168
C25U G38U | 0.614
C25U G38C | 0.847
C26G G42C | 0.139
C26G G42A | 0.103
C25G G41A | 0.146
C27G A40U | 0.107
C27G A40G | 0.062
C27G A40C | 0.119

Variant | self-cleavage
C25G A33G | 0.148
C27G G39U | 0.123
C27G G39A | 0.0704
C26U G29C | 0.0821
C26U G29U | 0.204
C25A U31A | 0.0924
C27A G39A | 0.128
C27A G39U | 0.0773
C27U A32G | 0.697
G24U C46G | 0.081
C25G G43C | 0.124
C25G G43A | 0.122
C27A A35U | 0.742
C27A A35C | 0.58
C27A A35G | 0.0986
C26G G45A | 0.154
C26G G45C | 0.117
C25U C46G | 0.762
C25U C46U | 0.75
C25U C46A | 0.686
C26A A30C | 0.0881

Variant | self-cleavage
C26A A30U | 0.542
C25A G28C | 0.146
C25A G28U | 0.146
C27U U31A | 0.792
C27U U31G | 0.723
C25U U37A | 0.392
C25U U37C | 0.133
C27A G41A | 0.119
C25U G45C | 0.247
C25A G36U | 0.0554
C25A G36A | 0.0755
C25A G47A | 0.102
C26A G29C | 0.122
C26A G29A | 0.267
C26A G29U | 0.214
C25G A30C | 0.129
C25G A40G | 0.129
C25G A40U | 0.103
C25G A40C | 0.0986
C26G A34G | 0.0982
C26G A34U | 0.15

Variant | self-cleavage
C25A G43U | 0.0941
C25A G43A | 0.0661
C25A G43C | 0.0876
C26G G39U | 0.103
C26G G39C | 0.119
C27U G36A | 0.583
C27U G36C | 0.21
C27U G36U | 0.158
C26A U37C | 0.105
C26U G41C | 0.154
C26U G41U | 0.145
C27G G48U | 0.0985
C26G G44U | 0.184
C26G G44A | 0.515
C25A U37C | 0.0999
C25A G41U | 0.0916
C27A G42A | 0.0939
C26U G44A | 0.537
C26U G44U | 0.249
C26U A32C | 0.451
